Measured values from patent US12295997B2, “Prostate neoantigens and their uses” (Janssen Biotech, Inc., priority 2020, dated 2025).

Assays:
Test in all cases: In vitro binding of neoantigens to class I MHC (UV peptide exchange, HLA class I ELISA)
Settings in all cases: 100% = same binding as positive control peptide
HLA-A*03:01 = HLA-A*03:01 (Homo sapiens, UniProt P04439)
Method: (§1) The 9 mer peptides identified by bioinformatics analysis were analyzed for their binding propensities to 6 common HLA class I alleles (HLA-A*01:01, A*02:01, A*03:01, A*24:02, B*07:02, B*08:01). The principle of the method is briefly described below and consists of two parts, one involving exchange of peptide with a positive control induced by Ultraviolet (UV) radiation, and the second is an enzyme immunoassay to detect stable HLA-peptide and empty HLA complexes.
(§2) HLA-bound peptides are critical for the stability of the HLA complex. A conditional HLA class I complex was stabilized by an UV-labile peptide utilizing a different peptide (Pos) for each HLA (Pos: HLA-A*01:01: […](SEQ ID NO: 409), HLA-A*02:01: […] (SEQ ID NO: 410), HLA-A*03:01: […] (SEQ ID NO: 411), HLA-A*24:02: […] (SEQ ID NO: 412), HLA-B*07:02: […] (SEQ ID NO: 413), HLA-B*08:01: […] (SEQ ID NO: 414), which could be cleaved by UV irradiation when bound to the HLA molecule. Upon cleavage, the resulting peptide fragments dissociated from the HLA class I complex since their length was insufficient to bind stably to HLA. Under the conditions in which peptide cleavage was performed (neutral pH, on melting ice), the peptide-free HLA complex remained stable.
(§3) The exchange efficiency between the peptide of interest and Pos was analyzed using an HLA class I ELISA. The combined technologies allowed the identification of ligands for an HLA molecule of interest which are potentially immunogenic.
(§4) Exchange control peptide Pos was a high affinity binder to the relevant HLA class I allele while exchange control peptide Neg was a non-binder. The UV control represented UV-irradiation of conditional HLA class I complex in the absence of a rescue peptide.
(§5) The HLA class I ELISA is an enzyme immunoassay based on the detection of beta2-microglobulin (B2M) of (peptide-stabilized) HLA class I complexes. To this end streptavidin was bound onto polystyrene microtiter wells. After washing and blocking, HLA complex present in exchange reaction mixtures or ELISA controls was captured by the streptavidin on the microtiter plate via its biotinylated heavy chain. Non-bound material was removed by washing. Subsequently, horseradish peroxidase (HRP)-conjugated antibody to human B2M was added. The HRP-conjugated antibody binds only to an intact HLA complex present in the microtiter well because unsuccessful peptide exchange results in disintegration of the original UV-sensitive HLA complex upon UV illumination. In the latter case B2M was removed during the washing step. After removal of non-bound HRP conjugate by washing, a substrate solution was added to the wells. A coloured product formed in proportion to the amount of intact HLA complex present in the samples. After the reaction was terminated by the addition of a stop solution, absorbance was measured in a microtiter plate reader. The absorbance was normalized to the absorbance of an exchange control peptide (represents 100%). Suboptimal HLA binding of peptides with a moderate to low affinity for HLA class I molecules can also be detected by this ELISA technique (Rodenko, B et al. (2006) Nature Protocols 1: 1120-32).
(§6) Peptides that had 10% or greater exchange efficiency in one of the 6 HLA alleles were considered for further immunogenicity testing and analysis.
(§7) Binding of select neoepitopes to HLA-A*01:01, HLA-A*02:01, HLA-A*03:01, HLAA*24:02, HLAAB*07:02 and HLA-B*08:01 was evaluated using the assay described in Example 1. […] As a criterion for further evaluation, peptides with an exchange rate of at least 10% with the corresponding Pos peptide for at least one of the 6 HLA alleles that we considered for further evaluation. The exchange rates with the allele specific Pos peptides, of the 24 neoantigens so identified are summarized below in Table 17. Higher percentages correspond to stronger binding to the HLA allele.

HLA-A*24:02 = HLA-A*24:02 (Homo sapiens, UniProt P04439, D101N/D140Y/D185E/E176V/E190D/F33S/G103R/G107R/I119L/I121M/I306V/K335N/L105A/L180Q/L300P/N151K/N90K/Q86E/Q94H/R106L/R138H/R89G/T104I/T345S/V100E/W191G/Y123F)
Method: as §1, §2, §3, §4, §5, §6
as §7, with “allele. […]” for “allele.”

HLA-A*02:01 = HLA-A*02:01 (Homo sapiens, UniProt P04439, D140Y/D185E/D98H/E176V/E277Q/G131W/G231S/I119V/I121R/I166T/I218V/L300P/L318F/N151K/N90K/P208A/P217A/Q86G/Q94H/R138H/R169H/T345S)
Method: as §1, §2, §3, §4, §5, §6
as §7, with “allele. […]” for “allele.”

HLA-B*08:01 = HLA-B*08:01 (Homo sapiens, UniProt P01889, A93T/A95T/D138N/E176V/E187T/K202T/Q94N/R180D/S35A/V36M/Y33D/Y91F)
Method: as §1, §2, §3, §4, §5, §6
as §7, with “allele. […]” for “allele.”

HLA-A*01:01 = HLA-A*01:01 (Homo sapiens, UniProt P04439, A114D/A174V/A182V/D101N/D185E/E176A/E190D/L180R/Q94H/R68K/S129P/T187R/V100A/V91M/W191G)
Method: as §1, §2, §3, §4, §5, §6
as §7, with “allele. […]” for “allele.”

| Molecule | Exchange rate with allele specific Pos peptide, HLA-A*03:01 (HLA-A*03:01) [%] | Exchange rate with allele specific Pos peptide, HLA-A*24:02 (HLA-A*24:02) [%] | Exchange rate with allele specific Pos peptide, HLA-A*02:01 (HLA-A*02:01) [%] | Exchange rate with allele specific Pos peptide, HLA-B*08:01 (HLA-B*08:01) [%] | Exchange rate with allele specific Pos peptide, HLA-A*01:01 (HLA-A*01:01) [%] |
| --- | --- | --- | --- | --- | --- |
| P46 (DDRNTFDIVWWCPMSRLRLALTVPPSTTTTCVTVPAWAA; listed as Homo sapiens) [Peptide P46] | 10.3 | −0.4 | 14.4 | 14.5 | 2.4 |
| P56 (PKSEVRAKCKFSILNAK; listed as Homo sapiens) [Peptide P56] | 6.8 | 0.5 | 8.4 | 38 | 2.6 |
| P58 (MMAEIISVHVPKILSGK; listed as Homo sapiens) [Peptide P58] | 32.5 | 0.2 | 11.8 | 5.3 | 2.5 |
| P60 (CYLRRQKRLKCEKQPGA; listed as Homo sapiens) [Peptide P60] | 36.6 | 0.9 | 7.9 | 10.2 | 3.1 |
| P61 (MFENGCYLGRQKRFKCE; listed as Homo sapiens) [Peptide P61] | 2.1 | 90.3 | 5.8 | 3.6 | 1.7 |
| P73 (DSSGNLLERNSFEVRV; listed as Homo sapiens) [Peptide P73] | 3.5 | 0.5 | 89.2 | 2.6 | 2.1 |
| P97 (GYLRMQGLMAQRLLLR; listed as Homo sapiens) [Peptide P97] | 39 | 0.1 | 4.6 | 2.7 | 2.5 |
| P98: neoantigen 9 mer fragment used for PBMC stimulation (FIG. 5D) (IVWWCPMSR; listed as Homo sapiens) [Neoantigen P98] | 51.1 | −0.1 | 7.9 | 2.4 | 2.5 |
| SLYHREKQLIAMDSAI (listed as Homo sapiens) [Neoantigen P22] | 4.8 | 0 | 46.9 | 3.9 | 4.4 |
| YEAGMTLGEKFRVGNCKHLKMTRP (listed as Homo sapiens) [Neoantigen P82] | 58.1 | −0.1 | 6.3 | 1.4 | 1.5 |
| YEAGMTLGGKILFFLFLLLPLSPFSLIF (listed as Homo sapiens) [Neoantigen P87] | 2.4 | 0.2 | 64 | 3.1 | 1.1 |
| P19 (peptide, listed as Homo sapiens) WTPIPVLTRWPLPHPPPWRRATSCRMARSSPSATSGSSVRRRCSSLPSWVWNLAASTRPRSTPS | 4.1 | 0.1 | 8.2 | 14.5 | 5.2 |
